The source of these data is patent publication EP1736482A1.

In experiment [1] the target is recombinant human 4-1BB-Fc chimera (R&D Systems) (human) (UniProt Q07011). In words: SPR (BIAcore 2000), 4-1BB-Fc coupled to CM5 chip, ligand in flow, 25°C.
Experiment [2] addresses 4-1BB on CD3-stimulated human T lymphocytes (PBMC) (human) (UniProt Q07011). In words: flow cytometry on CD3-stimulated PBMC, PE-conjugated antibody. Background: Flow cytometry measures light scatter and fluorescence of single cells or particles in a stream.
Experiment [3] shares this target. In words: cell-based or functional assay.
The target is the same in experiment [4]. Kind of experiment: flow cytometry on CD3-stimulated PBMC, ligand at 10 µg/ml revealed by PE-conjugated streptavidine.

Sequence of recombinant human 4-1BB-Fc chimera (R&D Systems) (human) (Q07011 24-186, change not shown): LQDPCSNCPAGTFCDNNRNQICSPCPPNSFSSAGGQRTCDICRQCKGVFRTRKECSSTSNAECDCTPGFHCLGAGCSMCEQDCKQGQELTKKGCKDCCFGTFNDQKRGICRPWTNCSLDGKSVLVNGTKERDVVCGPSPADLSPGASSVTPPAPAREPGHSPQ
Sequence of 4-1BB on CD3-stimulated human T lymphocytes (PBMC) (human) (Q07011 24-255): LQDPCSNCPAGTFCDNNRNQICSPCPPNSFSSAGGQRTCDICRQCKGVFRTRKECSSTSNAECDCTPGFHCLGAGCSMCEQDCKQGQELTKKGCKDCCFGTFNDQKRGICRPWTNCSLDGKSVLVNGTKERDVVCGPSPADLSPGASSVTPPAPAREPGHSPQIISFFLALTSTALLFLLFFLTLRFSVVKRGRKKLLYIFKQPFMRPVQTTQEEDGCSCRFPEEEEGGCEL

Consider “C51S AviTag-4-1BBL (from UniProt P41273 50-254) (ligand)”, for which, in experiment [1], the dissociation constant (Kd) came out at 2.3 nM, the koff was 0.00052 s⁻¹ and the on-rate constant (kon) was determined as 230000 M⁻¹ s⁻¹.
Substance “PE-conjugated anti 4-1BB mAb (clone 4B4-1, BD Biosciences) (antibody)” yielded a percentage of 4-1BB positive activated T cells stained in experiment [2] of 64%.
In experiment [3], “WT AviTag-4-1BBL (trimeric recombinant human 4-1BBL extracellular domain with N-terminal AviTag, produced in E. coli and refolded) (from UniProt P41273 50-254) (ligand)” yielded an inhibition of the proliferation of CD3-stimulated PBMC (tritiated thymidine incorporation) of 70%. In addition, the percentage of 4-1BB positive activated T cells stained in experiment [4] was 60%.

One may read the Kd as the constant that tells how readily two partners part at equilibrium. The term koff denotes the rate constant with which the complex falls apart. Usually kon stands for a measure of how fast the partners come together.
